Assay results taken from patent US20230056815A1.

Key:
Test in all cases: cell-based or functional assay
[1] = molecular target: human soluble FLT3L (recombinant huFLT3L) (human) (UniProt P49771)
[2] = molecular target: mouse soluble FLT3L (mouse) (UniProt P49772)
[3] = molecular target: cynomolgus monkey soluble FLT3L (cynomolgus monkey)

human soluble FLT3L (recombinant huFLT3L) (human), sequence (P49771 27-184): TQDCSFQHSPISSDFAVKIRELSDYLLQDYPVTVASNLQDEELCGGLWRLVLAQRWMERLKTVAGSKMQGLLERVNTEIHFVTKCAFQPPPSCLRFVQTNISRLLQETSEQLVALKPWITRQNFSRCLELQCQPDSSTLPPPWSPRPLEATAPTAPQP
mouse soluble FLT3L (mouse), sequence (P49772 27-189): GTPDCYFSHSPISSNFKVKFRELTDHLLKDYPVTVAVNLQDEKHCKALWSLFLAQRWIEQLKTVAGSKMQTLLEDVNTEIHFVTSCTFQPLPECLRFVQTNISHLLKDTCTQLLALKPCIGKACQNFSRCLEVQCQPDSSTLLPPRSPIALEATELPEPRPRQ

commercially available mouse anti-human FLT3L monoclonal antibody (MAB608, R&D Systems)
IC50 (nM) against 0.476 nM FLT3L, ERK phosphorylation in CD133+ stem cells [1]: 0.19 nM
IC50 (nM) against 0.476 nM FLT3L, MEK phosphorylation in CD133+ stem cells [1]: 0.19 nM
IC50 (nM), inhibition of FLT3 downregulation on RS4;11 cells [1]: 0.04 nM
IC50 (nM), inhibition of FLT3 downregulation on RS4;11 cells [2]: 0.12 nM
IC50 (nM), inhibition of FLT3 downregulation on RS4;11 cells [3]: 0.1 nM
